In publication PMC4067995 one finds stoichiometry N data, which are given here for one substance.

This assay concerns the target V1 (A3B3DF), the soluble subcomplex of TtATPase without peripheral stalks (Thermus thermophilus strain HB8) (UniProt Q56403). Briefly: native MS.

What is called stoichiometry N is the number of molecules, sites or subunits per partner or assembly.

Chain of V1 (A3B3DF), the soluble subcomplex of TtATPase without peripheral stalks (Thermus thermophilus strain HB8) (Q56403 whole entry, chain 1 of 4): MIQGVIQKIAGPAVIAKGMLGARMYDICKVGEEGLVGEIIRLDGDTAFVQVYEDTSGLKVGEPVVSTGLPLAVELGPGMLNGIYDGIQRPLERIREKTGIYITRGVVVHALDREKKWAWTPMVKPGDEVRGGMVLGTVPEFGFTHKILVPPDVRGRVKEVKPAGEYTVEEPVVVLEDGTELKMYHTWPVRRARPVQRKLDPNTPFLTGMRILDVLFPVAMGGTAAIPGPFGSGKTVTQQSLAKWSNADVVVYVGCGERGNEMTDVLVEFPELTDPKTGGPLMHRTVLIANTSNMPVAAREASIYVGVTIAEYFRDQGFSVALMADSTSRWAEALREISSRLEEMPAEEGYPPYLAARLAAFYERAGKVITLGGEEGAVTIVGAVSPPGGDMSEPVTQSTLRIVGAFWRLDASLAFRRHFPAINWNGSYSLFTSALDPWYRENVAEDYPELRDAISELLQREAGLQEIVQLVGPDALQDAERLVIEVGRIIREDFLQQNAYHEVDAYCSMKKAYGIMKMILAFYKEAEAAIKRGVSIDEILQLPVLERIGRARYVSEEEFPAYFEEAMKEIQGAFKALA
Chain of V1 (A3B3DF), the soluble subcomplex of TtATPase without peripheral stalks (Thermus thermophilus strain HB8) (Q56404 whole entry, chain 2 of 4, further chain): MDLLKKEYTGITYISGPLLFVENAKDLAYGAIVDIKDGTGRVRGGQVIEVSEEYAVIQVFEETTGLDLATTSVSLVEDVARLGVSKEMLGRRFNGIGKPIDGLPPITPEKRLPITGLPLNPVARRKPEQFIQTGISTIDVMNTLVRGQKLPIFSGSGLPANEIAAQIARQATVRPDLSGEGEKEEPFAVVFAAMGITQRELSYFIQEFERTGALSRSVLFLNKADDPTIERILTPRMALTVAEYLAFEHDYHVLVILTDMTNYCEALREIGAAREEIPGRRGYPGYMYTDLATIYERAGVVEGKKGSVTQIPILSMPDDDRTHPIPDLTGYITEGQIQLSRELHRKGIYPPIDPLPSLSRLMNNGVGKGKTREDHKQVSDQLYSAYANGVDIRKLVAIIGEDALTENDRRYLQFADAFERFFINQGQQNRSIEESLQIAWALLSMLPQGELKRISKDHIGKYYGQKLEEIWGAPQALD
Chain of V1 (A3B3DF), the soluble subcomplex of TtATPase without peripheral stalks (Thermus thermophilus strain HB8) (O87880 whole entry, chain 3 of 4, further chain): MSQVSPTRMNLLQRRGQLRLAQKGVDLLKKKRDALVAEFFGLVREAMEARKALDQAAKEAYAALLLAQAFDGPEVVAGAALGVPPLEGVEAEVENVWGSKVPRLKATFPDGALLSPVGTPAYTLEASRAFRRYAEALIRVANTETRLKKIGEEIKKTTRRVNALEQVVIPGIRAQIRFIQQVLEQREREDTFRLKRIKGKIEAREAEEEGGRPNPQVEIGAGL
Chain of V1 (A3B3DF), the soluble subcomplex of TtATPase without peripheral stalks (Thermus thermophilus strain HB8) (P74903 whole entry, chain 4 of 4, further chain): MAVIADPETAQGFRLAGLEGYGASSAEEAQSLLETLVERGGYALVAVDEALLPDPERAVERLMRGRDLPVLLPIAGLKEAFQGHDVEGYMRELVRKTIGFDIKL

Turning to “peripheral EG stalk of TtATPase (from UniProt P74901 1-188) (complex)”, the stoichiometry N turned out to be 2.
